Laboratory results: US20060084618, “Adiponectin promoter and use thereof” (published 2006)

B1: adiponectin PPRE probe (-291 to -267) (dsDNA)
DNA 1: TGGTTTTGACTTTTGCCCCATCTTC
DNA 2: GAAGATGGGGCAAAAGTCAAAACCA
B2: adiponectin LRH-RE probe (-245 to -221) (dsDNA)
DNA 1: AATAAGGGTCAAGGCCTGGAAACAC
DNA 2: GTGTTTCCAGGCCTTGACCCTTATT

Tests used:
PPARγ/RXRα heterodimer = PPARγ/RXRα heterodimer (Homo sapiens, UniProt P37231;P19793 P37231:1-505,P19793:1-462); assay: EMSA; poly(dI-dC), 25 C 20 min then 4 C 15 min; band when both PPARγ and RXRα present; competed by 10x and 50x unlabeled wild type; details: tags: TNT T7 Quick Coupled (Promega); label: 32P
Sequence of PPARγ/RXRα heterodimer (P37231 whole entry, chain 1 of 2): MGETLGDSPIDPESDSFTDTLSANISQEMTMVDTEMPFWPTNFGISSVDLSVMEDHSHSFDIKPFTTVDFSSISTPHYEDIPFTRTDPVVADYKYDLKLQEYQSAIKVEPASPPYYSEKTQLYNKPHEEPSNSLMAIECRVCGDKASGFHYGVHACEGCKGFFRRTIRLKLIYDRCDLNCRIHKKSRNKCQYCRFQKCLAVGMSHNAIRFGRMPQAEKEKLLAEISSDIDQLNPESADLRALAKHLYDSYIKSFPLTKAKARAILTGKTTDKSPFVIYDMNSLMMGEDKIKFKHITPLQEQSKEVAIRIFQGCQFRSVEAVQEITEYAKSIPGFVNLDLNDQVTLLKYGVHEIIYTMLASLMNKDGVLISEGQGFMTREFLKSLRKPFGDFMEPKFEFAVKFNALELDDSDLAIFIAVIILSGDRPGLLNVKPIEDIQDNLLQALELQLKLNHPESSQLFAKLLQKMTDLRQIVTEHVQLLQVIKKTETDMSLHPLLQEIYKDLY
Sequence of PPARγ/RXRα heterodimer (P19793 whole entry, chain 2 of 2): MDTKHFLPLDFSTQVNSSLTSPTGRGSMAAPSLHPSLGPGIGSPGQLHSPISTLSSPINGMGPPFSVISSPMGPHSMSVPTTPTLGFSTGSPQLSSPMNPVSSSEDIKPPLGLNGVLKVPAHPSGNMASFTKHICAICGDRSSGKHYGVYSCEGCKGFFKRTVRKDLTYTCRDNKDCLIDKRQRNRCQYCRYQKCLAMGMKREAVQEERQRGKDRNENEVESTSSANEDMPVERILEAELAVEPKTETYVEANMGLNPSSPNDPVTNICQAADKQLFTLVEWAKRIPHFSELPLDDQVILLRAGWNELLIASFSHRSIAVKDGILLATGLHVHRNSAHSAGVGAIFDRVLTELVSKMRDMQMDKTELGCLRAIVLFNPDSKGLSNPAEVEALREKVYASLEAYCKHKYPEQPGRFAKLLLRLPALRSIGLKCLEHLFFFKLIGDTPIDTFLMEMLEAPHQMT
Procedure: For the binding reaction, human PPARγ and RXRα protein were synthesized in vitro by using TNT T7 Quick Coupled Transcription/Translation Systems (Promega corporation) according to a supplyer's protocol. […] The binding reaction was performed in 20 μl of a solution including 1 μg of poly (dI-dC), 1 μl of the in vitro synthesized nuclear receptor solution, and 200,000 cpm of the labeled probe. After mixing, it was incubated for 20 minutes at 25° C. and was left for 15 minutes at 4° C. The labeled probe binding to nuclear receptors was separated from the free probe by electrophoresis using 4% of polyacrylamide gel. The electrophoresis was executed using 0.5× TBE buffer (45 mM Tris, 45 mM boric acid, and 1 m M EDTA) for 90 minutes under a voltage of 200V. After the electrophoresis, the gel was dried and analyzed by BAS2500 system (Fuji Photo Film Co., Ltd.). To confirm that the labeled probe binds to nuclear receptors specifically, the competitive reactions were executed.

LRH-1 = LRH-1 (Homo sapiens, UniProt O00482 O00482:1-541); assay: EMSA; conditions as Example 4; competed by 10x and 50x unlabeled wild type; details: protein: synthetic; tags: synthesized in vitro from human LRH-1 expression plasmid; label: 32P
Sequence of LRH-1 (O00482 whole entry, one chain of several): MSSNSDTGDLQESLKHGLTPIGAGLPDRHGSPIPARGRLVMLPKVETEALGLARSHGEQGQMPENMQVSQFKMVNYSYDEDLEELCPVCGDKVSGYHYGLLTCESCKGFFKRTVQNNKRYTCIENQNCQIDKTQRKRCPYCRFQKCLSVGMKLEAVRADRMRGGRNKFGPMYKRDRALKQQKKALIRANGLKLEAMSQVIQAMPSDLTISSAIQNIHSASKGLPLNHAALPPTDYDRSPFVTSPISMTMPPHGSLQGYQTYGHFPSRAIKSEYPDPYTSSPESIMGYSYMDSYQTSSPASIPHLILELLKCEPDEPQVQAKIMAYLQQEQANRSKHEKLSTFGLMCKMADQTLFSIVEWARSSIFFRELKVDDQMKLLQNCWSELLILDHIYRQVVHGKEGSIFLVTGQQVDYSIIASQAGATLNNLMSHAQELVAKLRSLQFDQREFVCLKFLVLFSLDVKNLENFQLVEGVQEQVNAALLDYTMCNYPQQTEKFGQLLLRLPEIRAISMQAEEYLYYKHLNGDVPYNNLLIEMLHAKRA
Procedure: To confirm the direct binding of LRH-1 to the regulatory sequence LRH-RE found in human adiponectin promoter region, gel shift assay was executed. […] LRH-1 protein used was synthesized in vitro using human LRH-1 expression plasmid as template. […] In the competitive reaction, identical oligoDNAs to the labeled probe were used as wild-type competitors. […] 10 times or 50 times higher concentration of each unlabeled oligoDNAs was added into the reaction.

| Binder | binding result (PPARγ/RXRα heterodimer) | binding result (LRH-1) |
| --- | --- | --- |
| B1 | binds | – |
| B2 | – | binds |
